Positions count from the first letter of the chain named. Numbers in names are those of the source.
B1: 5G9 mouse anti-ErbB2 monoclonal antibody (antibody, mouse IgG1, V domains shown)
VH: QVQLQQSGAELARPGASVKMSCKTSGYTFSSYTIHWVKQRPGQGLDWIGYINPSSDYTAYNQKFRDKATLTADQSSNTAYMQLSSLASADSAVYYCARASAFSLDFWGQGTTLTVSS
VL: DIQMTQSPSSLSASLGGKVTISCKASHDIDRYIAWYQHKPGKGPRLLIHYTSTLQPGIPSRFSGSGSGRDYSFSISNLEPEDVATYYCLNYDNLLWTFGGGTKLEIT
notes: also called 5G91B42A3; IgG 5G9
B2: 4C9 mouse anti-ErbB2 monoclonal antibody (antibody, mouse IgG1, V domains shown)
VH: B1 VH with T24A, S30T, I34M, D56G, A59T, R65K, Q74K, N77S, F102Y, F106Y
VL: B1 VL with K18R, S22T, V83I, N90K
notes: also called 4C9G3F5; IgG 4C9
B3: 4H2 mouse anti-ErbB2 monoclonal antibody (antibody, mouse IgG1, V domains shown)
VH: QVQLQQSGAELARPGASVKMSCKASGFTFTSYTIHWVKQRPGQGLDWIGYINPSSGYTTYNQRFKDKATLTADKSSSTAYMQLSSLTSADSAVYYCARASAYSLDYWGQGTTLTVSS
VL: B1 VL with S22T, H27Q, D70N, V83I, N90K, T107K
notes: also called 4H2H2H9; IgG 4H2
B4: 5G9.v1 humanized antibody (antibody, V domains shown)
VH: EVQLVQSGAEVKKPGSSVKVSCKTSGYTFSSYTIHWVRQAPGQGLEWIGYINPSSDYTAYNQKFRDRATLTADQSTNTAYMELSSLRSEDTAVYYCARASAFSLDFWGQGTLVTVSS
VL: DIQMTQSPSSLSASVGDRVTITCKASHDIDRYIAWYQHKPGKGPKLLIHYTSTLQPGIPSRFSGSGSGRDYTLTISSLQPEDVATYYCLNYDNLLWTFGQGTKVEIK
notes: VH.v1/VL.v1, back mutations 0/0
B5: 5G9.v7 humanized antibody (antibody, V domains shown)
VH: B4 VH
VL: B4 VL with Y71F
notes: VH.v1/VL.6, back mutations 0/Y71F
B6: 5G9.v3 humanized antibody (antibody, V domains shown)
VH: B4 VH
VL: B4 VL with G43V
notes: VH.v1/VL.2, back mutations 0/G43V
B7: 5G9.v9 humanized antibody (antibody, V domains shown)
VH: B4 VH with L70I
VL: B4 VL
notes: VH.2/VL.v1, back mutations L69I/0
B8: 5G9.v5 humanized antibody (antibody, V domains shown)
VH: B4 VH
VL: B4 VL with I58V
notes: VH.v1/VL.4, back mutations 0/I58V
B9: 5G9.v10 humanized antibody (antibody, V domains shown)
VH: B4 VH with Q74K
VL: B4 VL
notes: VH.3/VL.v1, back mutations Q73K/0
B10: 5G9.v11 humanized antibody (antibody, V domains shown)
VH: B4 VH with N77S
VL: B4 VL
notes: VH.4/VL.v1, back mutations N76S/0
B11: 5G9.v4 humanized antibody (antibody, V domains shown)
VH: B4 VH
VL: B4 VL with H49Y
notes: VH.v1/VL.3, back mutations 0/H49Y
B12: 5G9.v2 humanized antibody (antibody, V domains shown)
VH: B4 VH
VL: B4 VL with H38Q
notes: VH.v1/VL.1, back mutations 0/H38Q
B13: 5G9.v6 humanized antibody (antibody, V domains shown)
VH: B4 VH
VL: B4 VL with R69T
notes: VH.v1/VL.5, back mutations 0/R69T
B14: 5G9.v12 humanized antibody (antibody, V domains shown)
VH: B4 VH with I48M
VL: B4 VL
notes: VH.5/VL.v1, back mutations I48M/0
B15: 5G9.v8 humanized antibody (antibody, V domains shown)
VH: B4 VH with A68V
VL: B4 VL
notes: VH.1/VL.v1, back mutations A67V/0
B16: 5F12 chimera (antibody, V domains shown)
VH: QVQLQQSGAELARPGASVKMSCKASGYTFTSYTMHWIKQRPGQGLEWIGYINPSSSYTNYNQNFKDKATLTADKSSSTANMQLNSLTSEDSAVYYCARASSYSLDYWGQGTALTVSS
VL: DIQMTQSPSSLSTSLGGKVTITCKASQDINKYIAWYQHKPGKGPRLLIHSTSTLYPGIPSRFSGSGSGKDYSFRITNLEPEDIATYYCLQYDNLLWTFGGGTKLGIR
notes: also called 5F12 chimeric; 5F12 chimeric antibody
B17: 5F12.v2 humanized antibody (antibody, V domains shown)
VH: EVQLVQSGAEVKKPGSSVKVSCKASGYTFTSYTMHWIRQAPGQGLEWIGYINPSSSYTNYNQNFKDRATLTADKSTSTAYMELSSLRSEDTAVYYCARASSYSLDYWGQGTLVTVSS
VL: B4 VL with H27Q, D30N, R31K, H38Q, Y50S, Q55Y, R69K, L73F, V83I, N90Q
notes: as for B12
B18: 5F12.v10 humanized antibody (antibody, V domains shown)
VH: B17 VH with A68V
VL: B4 VL with H27Q, D30N, R31K, Y50S, Q55Y, R69K, L73F, V83I, N90Q
notes: VH.3/VL.v1, back mutations A67V/0
B19: 5F12.v6 humanized antibody (antibody, V domains shown)
VH: B17 VH
VL: B4 VL with H27Q, D30N, R31K, Y50S, Q55Y, R69T, L73F, V83I, N90Q
notes: VH.v1/VL.5, back mutations 0/K69T
B20: 5F12.v3 humanized antibody (antibody, V domains shown)
VH: B17 VH
VL: B4 VL with H27Q, D30N, R31K, G43A, Y50S, Q55Y, R69K, L73F, V83I, N90Q
notes: VH.v1/VL.2, back mutations 0/G43A
B21: 5F12.v9 humanized antibody (antibody, V domains shown)
VH: B17 VH with I48M
VL: B4 VL with H27Q, D30N, R31K, Y50S, Q55Y, R69K, L73F, V83I, N90Q
notes: VH.2/VL.v1, back mutations I48M/0
B22: 5F12.v5 humanized antibody (antibody, V domains shown)
VH: B17 VH
VL: B4 VL with H27Q, D30N, R31K, Y50S, Q55Y, I58V, R69K, L73F, V83I, N90Q
notes: as for B8
B23: 5F12.v11 humanized antibody (antibody, V domains shown)
VH: B17 VH with L70I
VL: B4 VL with H27Q, D30N, R31K, Y50S, Q55Y, R69K, L73F, V83I, N90Q
notes: VH.4/VL.v1, back mutations L69I/0
B24: 5F12.v7 humanized antibody (antibody, V domains shown)
VH: B17 VH
VL: B4 VL with H27Q, D30N, R31K, Y50S, Q55Y, R69K, Y71F, L73F, V83I, N90Q
notes: as for B5
B25: 5F12.v8 humanized antibody (antibody, V domains shown)
VH: B17 VH with I37V
VL: B4 VL with H27Q, D30N, R31K, Y50S, Q55Y, R69K, L73F, V83I, N90Q
notes: VH.1/VL.v1, back mutations I37V/0
B26: 4C9 chimera (antibody, V domains shown)
VH: B3 VH with F27Y, I34M, R63K, T87A
VL: B1 VL with K18R, S22T, V83I, N90K
notes: also called 4C9 chimeric antibody

target: T1, recombinant human ErbB2 extracellular domain (ErbB2-ECD) (human, UniProt P04626 23-652); assay: capture ELISA, coated antibody, biotin-human ErbB2-ECD titrated
T1 construct: extracellular domain; Coated on plates or used biotin-labeled in solution (capture ELISA); also called Human ErbB2-ECD; rhErbB2
Method: (§1) The corresponding purified IgG of five antibodies of this invention were also evaluated for their binding activity to recombinant human ErbB2 by capture ELISA. The procedure is briefly described as following: The 96-well plates were coated with 0.5 μg/ml anti-ErbB2 antibody overnight, blocked by 1% BSA in PBST at 37° C. for one hour. Add serial diluted sample of biotin-human ErbB2-ECD started with 2 μg/ml with 1:5 serial dilution. Wash the plate 3 times with PBST and add 100 ul of HRP-streptavidin (1:5000) to each well. Incubate for another 40 min at 37° C. Wash the plate 3 times with PBST and add 100 ul/well of TMB to develop at RT for 15 min followed by quenching with 50 ul 1N HCl. Read the plates at 450 nm for OD's value. Calculate the binding EC50 by using Prism software and the results are in Table 8 below

EC50 [nM] | Binder
0.499 | B1
0.142 | B2
0.117 | B3

target: T1, recombinant human ErbB2 extracellular …; assay: capture ELISA, recombinant ErbB2-ECD

EC50 [nM] | Binder
0.031 | B4
0.053 | B5
0.023 | B6
0.054 | B7
0.013 | B8
0.029 | B9
0.081 | B10
0.072 | B11
0.062 | B12
0.044 | B13
0.029 | B14
0.165 | B15

target: T1, recombinant human ErbB2 extracellular …; assay: capture ELISA, recombinant ErbB2-ECD; remark: another data set of the same source

EC50 [nM] | Binder
0.043 | B16
0.034 | B17
0.032 | B18
0.032 | B19
0.026 | B20
0.023 | B21
0.028 | B22
0.028 | B23
0.152 | B24
0.018 | B25

target: T1, recombinant human ErbB2 extracellular …; assay: capture ELISA, recombinant ErbB2-ECD; remark: another data set of the same source
Method: as §1
The variable domains of the heavy and light chain of the anti-ErbB2 monoclonal antibodies (Table 12, above) were cloned in-frame to human IgG1 heavy-chain and kappa light-chain constant regions, respectively.

EC50 [nM] | Binder
0.024 | B16
0.114 | B26

target: T2, human ErbB2 on ErbB2-positive cells (human, UniProt P04626 23-1255); assay: cell-based or functional assay

Internalization rate in SKBR3 cells, FITC signal, 2-hour | Binder
23.8 | B2
17.7 | B3

target: T3, recombinant Macaca mulatta ErbB2-ECD (Macaca mulatta, UniProt I0FM22 23-652); assay: indirect ELISA, coated ErbB2-ECD 1 ug/ml
T3 construct: extracellular domain
Method: (§2) Using indirect ELISA described in Example 1, the binding activity of antibodies of this invention to recombinant ErbB2-ECD derived from different species such as mouse, rat, Macaca mulatta, Macaca fascicularis and human, was examined. Briefly. Coat 96-well ELISA plates with 1 ug/ml recombinant ErbB2-ECD of different species with 100 ul/well and incubate at 4° C. for overnight. Remove the coating solution by discarding and tapping gently on a filter paper. Add 200 ul/well blocking buffer, incubate at 37° C. for 1-2 hours. Add purified antibody of this invention and incubate at 37° C. for one hour. Wash the plate 3 times with PBST, add goat anti-mouse IgG-HRP 100 ul/well, incubate at 37° C. for one hour. Wash the plate 3 times with PBST, add 100 ul/well TMB after 15 min, add 50 ul/well 1N HCl. Read the plate with Microplate Reader at 450 nm wavelength.

binding result | Binder
binds | B1
binds | B2
binds | B3

target: T4, recombinant mouse ErbB2-ECD (mouse, UniProt P70424 23-653); assay: indirect ELISA, coated ErbB2-ECD 1 ug/ml
T4 construct: extracellular domain
T4 sequence (P70424 23-653): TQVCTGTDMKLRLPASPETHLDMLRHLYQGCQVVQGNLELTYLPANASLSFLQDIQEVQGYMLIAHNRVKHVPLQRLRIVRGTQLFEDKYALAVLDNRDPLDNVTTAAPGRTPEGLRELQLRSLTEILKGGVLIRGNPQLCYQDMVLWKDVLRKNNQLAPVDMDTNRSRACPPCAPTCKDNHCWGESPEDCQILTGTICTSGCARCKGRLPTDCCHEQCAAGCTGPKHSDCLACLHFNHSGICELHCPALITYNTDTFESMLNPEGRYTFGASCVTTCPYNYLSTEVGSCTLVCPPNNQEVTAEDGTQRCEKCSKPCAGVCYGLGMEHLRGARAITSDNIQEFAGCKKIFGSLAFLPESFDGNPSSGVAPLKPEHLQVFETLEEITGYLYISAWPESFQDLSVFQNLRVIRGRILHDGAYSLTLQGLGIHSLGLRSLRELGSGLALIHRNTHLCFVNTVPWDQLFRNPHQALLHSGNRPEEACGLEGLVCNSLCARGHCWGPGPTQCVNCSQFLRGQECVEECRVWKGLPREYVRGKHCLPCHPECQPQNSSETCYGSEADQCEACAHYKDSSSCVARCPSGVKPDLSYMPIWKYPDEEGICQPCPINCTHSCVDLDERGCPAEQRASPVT
Method: as §2

binding result | Binder
no binding | B1
no binding | B2
no binding | B3

target: T5, recombinant rat ErbB2-ECD (rat, UniProt P06494 23-654); assay: indirect ELISA, coated ErbB2-ECD 1 ug/ml
T5 construct: extracellular domain
T5 sequence (P06494 23-654): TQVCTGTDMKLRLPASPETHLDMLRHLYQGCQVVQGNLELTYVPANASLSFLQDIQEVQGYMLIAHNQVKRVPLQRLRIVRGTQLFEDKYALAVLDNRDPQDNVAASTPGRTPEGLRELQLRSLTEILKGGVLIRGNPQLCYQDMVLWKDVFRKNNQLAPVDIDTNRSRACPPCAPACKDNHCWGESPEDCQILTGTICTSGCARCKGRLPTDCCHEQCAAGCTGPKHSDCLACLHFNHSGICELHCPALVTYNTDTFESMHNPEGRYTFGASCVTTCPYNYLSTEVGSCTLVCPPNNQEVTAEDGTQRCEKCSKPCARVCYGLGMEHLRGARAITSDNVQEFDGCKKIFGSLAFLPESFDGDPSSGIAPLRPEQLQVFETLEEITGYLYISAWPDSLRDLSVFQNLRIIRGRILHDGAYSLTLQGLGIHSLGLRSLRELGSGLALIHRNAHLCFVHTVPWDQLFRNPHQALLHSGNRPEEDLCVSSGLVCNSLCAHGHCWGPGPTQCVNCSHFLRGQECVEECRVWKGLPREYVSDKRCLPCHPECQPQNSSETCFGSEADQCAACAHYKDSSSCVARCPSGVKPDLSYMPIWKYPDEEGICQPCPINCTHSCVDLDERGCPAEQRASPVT
Method: as §2

binding result | Binder
no binding | B1
no binding | B2
no binding | B3

target: T2, human ErbB2 on ErbB2-positive cells; assay: cell-based or functional assay; remark: another data set of the same source

BT474 cell proliferation inhibition IC50 (hIgG + 5G9) [nM] | BT474 cell proliferation inhibition IC50 (hIgG + 4C9) [nM] | BT474 cell proliferation inhibition IC50 (hIgG + 4H2) [nM] | Binder
~1.33 |  |  | B1
 | 0.471 |  | B2
 |  | ~1.17 | B3

target: T3, recombinant Macaca mulatta ErbB2-ECD; assay: indirect ELISA, coated ErbB2-ECD
Method: as §2
(§3) Following the same method described in Example 5, the binding activity of the chimeric antibodies of this invention was examined for binding recombinant ErbB2-ECD derived from different species such as mouse, rat Macaca mulatta, Macaca fasciculari and human.

binding result | Binder
binds | B16
binds | B26

target: T4, recombinant mouse ErbB2-ECD; assay: indirect ELISA, coated ErbB2-ECD
Method: as §2, §3

binding result | Binder
no binding | B16
no binding | B26

target: T5, recombinant rat ErbB2-ECD; assay: indirect ELISA, coated ErbB2-ECD
Method: as §2, §3

binding result | Binder
no binding | B16
no binding | B26

From US20200002434A1 (BIOSION, published 2020)
